Assay results taken from paper doi:10.1101/2025.10.28.685229.

Legend:
[1] = target: YF17D VLPs containing only E and M proteins (yellow fever virus, strain 17D); test: BLI
[2] = target: YF17D virus particles (live-attenuated YFV 17D) (yellow fever virus, strain 17D); test: BLI

## Fc-tagged LRP8-LBD (LRP8 LA1237 with a C-terminal human IgG Fc) (Fc fusion)
[1]
  Kd: 300 nM
[2]
  Kd: 460 nM
